Test [1] concerns the target T1, human CDH6 with EC2 removed, on HEK293T cells (HEK293T-hCDH6-EC2 deletion) (human, UniProt P55285 54-790).
T1 construct: Signal peptide not removed here
T1 sequence: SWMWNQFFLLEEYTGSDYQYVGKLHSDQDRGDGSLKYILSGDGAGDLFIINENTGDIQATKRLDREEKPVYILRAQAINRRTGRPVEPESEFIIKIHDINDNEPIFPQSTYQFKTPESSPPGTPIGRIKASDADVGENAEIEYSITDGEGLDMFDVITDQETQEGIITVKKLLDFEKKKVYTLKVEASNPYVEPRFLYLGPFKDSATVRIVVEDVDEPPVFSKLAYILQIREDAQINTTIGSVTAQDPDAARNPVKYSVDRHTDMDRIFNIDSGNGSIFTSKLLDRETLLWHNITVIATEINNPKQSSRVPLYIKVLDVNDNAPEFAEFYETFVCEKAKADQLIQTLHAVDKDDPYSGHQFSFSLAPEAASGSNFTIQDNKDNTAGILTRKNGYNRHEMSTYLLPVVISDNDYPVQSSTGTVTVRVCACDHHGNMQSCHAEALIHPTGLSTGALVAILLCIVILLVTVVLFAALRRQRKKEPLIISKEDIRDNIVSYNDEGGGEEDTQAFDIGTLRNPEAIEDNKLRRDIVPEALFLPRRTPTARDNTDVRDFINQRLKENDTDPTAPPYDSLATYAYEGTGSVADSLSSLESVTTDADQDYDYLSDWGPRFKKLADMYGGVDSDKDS
Put plainly: FACS, HEK293T-hCDH6-EC2 deletion cells. Background: In flow cytometry, cells or beads pass a laser one at a time.

Test [2] deals with T2, his-tagged human CDH6 extracellular region protein (hCDH6 ECD-his) (human, UniProt P55285 19-615).
T2 construct: also called Human CDH6-his; hCDH6-his; not shown: his tag
T2 sequence: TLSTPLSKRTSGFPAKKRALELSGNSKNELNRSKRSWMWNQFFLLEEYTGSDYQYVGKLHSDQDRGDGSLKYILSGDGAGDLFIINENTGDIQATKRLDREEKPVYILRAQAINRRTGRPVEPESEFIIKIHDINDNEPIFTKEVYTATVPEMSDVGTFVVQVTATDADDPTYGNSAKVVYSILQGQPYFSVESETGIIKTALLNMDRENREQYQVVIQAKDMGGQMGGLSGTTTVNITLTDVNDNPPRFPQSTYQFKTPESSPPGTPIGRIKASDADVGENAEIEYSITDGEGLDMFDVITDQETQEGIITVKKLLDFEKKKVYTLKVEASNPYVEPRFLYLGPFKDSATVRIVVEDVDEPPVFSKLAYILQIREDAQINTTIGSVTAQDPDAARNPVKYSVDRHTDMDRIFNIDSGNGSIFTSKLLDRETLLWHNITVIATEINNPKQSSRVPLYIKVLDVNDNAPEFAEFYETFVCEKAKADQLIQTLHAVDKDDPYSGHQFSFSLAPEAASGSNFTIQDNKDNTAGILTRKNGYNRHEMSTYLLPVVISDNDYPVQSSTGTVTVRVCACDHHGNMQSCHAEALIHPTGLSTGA
The experiment in a line: ELISA, coated antigen.

B1: CHI-CDH6-4 (antibody, human IgG1, kappa, V domains shown)
VH: QVQLQQSGPELVKPGASVKISCKASGYAFSNFWMNWVKQRPGKGLEWIGWIYPGDGDTNYNGKFKDKATLTADKSSSTAYIQLSSLTSEDSAVYFCARLYDAWGFFDYWGQGTTLTVSS
VL: QIVLTQSPAIMSASPGQKVTITCSASSSVNYMHWYQQKLGSSPKLWIYDKSKLAPGVPARFSGSGSGTSYSLTISSMEAEDAASYFCHQWSSYPPMTFGGGTKLEIKR
notes: also called CH1-CDH6-4; chimeric antibody of murine CDH6-4
For B1, in test [1], the binding result is reported as “no binding”.

B2: CHI-CDH6-1 (antibody, human IgG1, kappa, V domains shown)
VH: QVQLQQPGAELVRPGSSVKLSCKASGYTFTNYWMHWVKQRPIEGLEWIGDIDPSHSETHYTQKFKDKATLTVDKSSSTAYMQLSSLTSEDSAVYYCARGDLGRFDYWGQGTTLTVSS
VL: DIVLTQSPASLAVSLGQRATISCRASESVSIHGTHLMHWYQQKSGQPPKLLIYAASNLESGVPARFSGSGSETDFTFNIHPVEEEDAATYFCQQSFEDPWTFGGGTKLEIKR
notes: also called CHI-hCDH6-1; CH1-CDH6-1
By EC50 is commonly meant the concentration at which the effect is half-maximal. Take B2: in test [2], the concentration for a half-maximal effect (EC50) turned out to be 32 pM and the “Max OD450” value came to 2.59 OD450.

B3: hCDH6-1-H2L3 (antibody, V domains shown)
VH: EVQLVQSGAEVKKPGSSVKVSCKASGYTFTNYWMHWVRQAPGQGLEWMGDIDPSHSETHYTQKFKDRVTITVDKSTSTAYMELSSLRSEDTAVYYCARGDLGRFDYWGQGTTVTVSS
VL: DIQMTQSPSSLSASVGDRVTITCRASESVSIHGTHLMHWYQQKPGKPPKLLIYAASNLESGVPSRFSGSGSETDFTFTISSLQPEDIATYYCQQSFEDPWTFGGGTKVEIK
notes: Humanized
As for B3, in test [2], the EC50 was 29 pM and the “Max OD450” value came out at 2.61 OD450.

Source of the values: patent US20260234242A1 (HAINAN SIMCERE ZAIMING PHARMACEUTICAL, published 2026).
